Measured values as given in patent US20190144550A1 (Pfizer, published 2019).
Residue numbers refer to the chain shown, from its start. Blank lines part the entries; values can stand above or below the binder they belong to.

Legend:
[1] = molecular target: T1, EGFR-mFc (human; mouse, UniProt P00533 25-645); test: flow cytometry, CAR T cells on Day 4 after transduction incubated with EGFR-mFc, then PE-labeled goat anti-mouse Fc
T1 construct: extracellular domain; Produced in HEK293 cells; also called recombinant EGFR-mFc; not shown: mouse IgG1-Fc domain
Excerpt: To determine target binding specificity of the CARs, recombinant proteins EGFRvII-mFc and EGFR-mFc, which comprise of the extracellular domain of either human EGFRvIII or human wild-type EGFR, respectively, fused with mouse IgG1-Fc domain, were produced in HEK293 cells. […]

[2] = molecular target: T2, 8-histidine tagged recombinant wild-type protein EGFRwt (UniProt P00533 25-645, limits assumed); test: SPR, captured by anti-human Fc
T2 construct: not shown: 8-histidine tag

[3] = molecular target: T3, Monomeric 8-histidine tagged human EGFRvIII extracellular domain (human, UniProt P00533 298-645); test: SPR, captured by anti-human Fc, 25 C; 25 C
T3 construct: Analyte in all SPR assays; not shown: 8-histidine tag

[4] = molecular target: T3, Monomeric 8-histidine tagged human …; test: SPR, captured by anti-human Fc, 25 C
Excerpt: (§1) Anti-EGFRvII mouse (m) antibody, m62G7, generated from hybridomas was sequenced and subcloned into suitable vectors for expression as murine-human chimeric antibodies. The CDRs of mouse antibody m62G7 were grafted onto human framework and expressed as human IgG1 recombinant antibody, h62G7. Affinity variants of h62G7 were made by introducing mutations in the CDRs of the heavy and light chains. The affinities of recombinant anti-EGFRvIII chimeric antibody m62G7 and humanized h62G7 antibodies were measured on a surface plasmon resonance Biacore™ T200 biosensor equipped with a research-grade anti-human Fc coupled CM4 sensor chip (GE Healthcare Inc., Piscataway, N.J.). Anti-EGFRvII antibodies were then captured by anti-human Fc. Monomeric 8-histidine tagged human EGFRvIII extracellular domain was then injected as the analyte at 10-fold dilution series with top concentration at 1000 nM. Affinity of anti-EGFRvIII antibodies towards human EGFRvIII was measured at both 25° C. and 37° C.

[5] = molecular target: T3, Monomeric 8-histidine tagged human …; test: SPR, captured by anti-human Fc, 37 C
Excerpt: as §1

binding result [1]: binds
B1: C6 EGFRvIII specific CAR (other)
chain: QVQLVQSGAEVKKPGSSVKVSCKASGDTFSSNAISWVRQAPGQGLEWMGVIIPIFGTADYAQKFQGRVTITADESTSTAYMELSSLRSEDTAVYYCARHTYHEYAGGYYGGAMDPWGQGTLVTVSSGGGGSGGGGSGGGGSGGGGSELQSVLTQPPSASGTPGQRVTISCSGSSSNIGSNYVYWYQQLPGTAPKILIYRNNQRPSGVPDRFSGSKSGTSASLAISGLRSEDEADYYCAAWDDNLSGWVFGTGTKLTVLTTTPAPRPPTPAPTIASQPLSLRPEACRPAAGGAVHTRGLDFACDIYIWAPLAGTCGVLLLSLVITLYCKRGRKKLLYIFKQPFMRPVQTTQEEDGCSCRFPEEEEGGCELRVKFSRSADAPAYQQGQNQLYNELNLGRREEYDVLDKRRGRDPEMGGKPRRKNPQEGLYNELQKDKMAEAYSEIGMKGERRRGKGHDGLYQGLSTATKDTYDALHMQALPPR
notes: Chimeric antigen receptor on primary human T cells; also called EGFRvIII specific clone C6 CAR

binding result [2]: no binding (tested: 1000 nM) | koff [3]: 0.012 s⁻¹ | Kd [4]: 59.9 nM | kon [4]: 200000 M⁻¹ s⁻¹ | Kd [5]: 186 nM | koff [5]: 0.069 s⁻¹ | kon [5]: 370000 M⁻¹ s⁻¹
B2: h62G7-EQ/L1-DV (antibody, V domains shown)
VH: QVQLVQSGAEVKKPGASVKVSCKASGYTFTDYTLHWVRQAPGQGLEWMGGIWPITGGTTYNQKFKGRVTMTRDTSTSTVYMELSSLRSEDTAVYYCARGEAQGSWGQGTLVTVSS
VL: DVVMTQSPLSLPVTLGQPASISCKSSQSLLYSNDKTYTNWFQQRPGQSPRRLIYEVSKLDVGVPDRFSGSGSGTDFTLKISRVEAEDVGVYYCGQDTHFPLTFGGGTKVEIK
notes: Human IgG1

binding result [2]: no binding (tested: 1000 nM) | Kd [4]: 992 nM | koff [4]: 0.013 s⁻¹ | kon [4]: 13000 M⁻¹ s⁻¹ | Kd [5]: 1580 nM | koff [5]: 0.068 s⁻¹ | kon [5]: 43000 M⁻¹ s⁻¹
B3: h62G7-H14/L6 (antibody, V domains shown)
VH: B2 VH with Q102E
VL: B2 VL with D34G, T38L, E55Q, V61S
notes: Human IgG1
